The target of data set [1] is T1, TyrR (tyrosine repressor) (Erwinia herbicola) (UniProt Q9ZIB7).
T1 sequence: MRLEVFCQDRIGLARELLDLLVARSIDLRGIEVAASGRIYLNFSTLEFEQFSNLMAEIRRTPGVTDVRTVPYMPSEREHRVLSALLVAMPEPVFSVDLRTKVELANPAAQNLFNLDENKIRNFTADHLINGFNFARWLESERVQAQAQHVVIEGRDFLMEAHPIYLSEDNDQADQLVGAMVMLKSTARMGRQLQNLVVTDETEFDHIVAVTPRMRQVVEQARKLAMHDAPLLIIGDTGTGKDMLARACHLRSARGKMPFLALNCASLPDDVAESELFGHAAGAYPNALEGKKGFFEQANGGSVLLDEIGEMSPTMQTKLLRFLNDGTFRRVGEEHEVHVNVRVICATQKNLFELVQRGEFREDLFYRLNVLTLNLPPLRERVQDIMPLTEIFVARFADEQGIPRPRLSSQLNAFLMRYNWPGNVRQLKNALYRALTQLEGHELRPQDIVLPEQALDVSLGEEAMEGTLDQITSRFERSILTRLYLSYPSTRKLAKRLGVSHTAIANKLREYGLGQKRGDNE
Put plainly: cell_activity. The following applies: beta-galactosidase reporter, M9 + 2 mM L-tyrosine, 37 C; 35.5 without tyrosine; indirect evidence of binding.

In the next data set the test system is TyrR (Escherichia coli). Put plainly: cell_activity. The following applies: beta-galactosidase reporter, M9 + 2 mM L-tyrosine, 37 C; 29.1 without tyrosine; indirect evidence of binding.

On to “tpl promoter/enhancer region (about 480 bp, tpl'-'lac fusion)”, for which the activity in data set [1] amounted to 656 Miller units; in the data set on TyrR (Escherichia coli), 324 Miller units.

Source of the values: patent US6146878.
